Reference: PMC1939876

Assays:
Assay in all cases: EMSA
Zif268 3F peptide = conditions: calibration reference; value from ref 51; Buffer, salt, pH and temperature not given (methods cited); phage ELISA with 0.125-32 nM DNA; EMSA with 5-fold dilution series of TNT-expressed protein; cited from earlier work
[1] = test system: VP64-6ZfFLO11/F2-F1 (engineered); conditions: Buffer, salt, pH and temperature not given (methods cited); phage ELISA with 0.125-32 nM DNA; EMSA with 5-fold dilution series of TNT-expressed protein
[2] = test system: VP16-6ZfFLO11/F2-F1 (engineered); conditions: Buffer, salt, pH and temperature not given (methods cited); phage ELISA with 0.125-32 nM DNA; EMSA with 5-fold dilution series of TNT-expressed protein

Substance | Kd (Zif268 3F peptide) [nM] | binding signal (fold stronger than 3F rTFs) [1] | binding signal (fold stronger than 3F rTFs) [2]
Zif268 cognate 9-bp site | 2 | – | –
TFLO11/F2-F1 (also called F1-F2) 31-bp oligo | – | 10 | 10
